The target in the assay is T1, endothelial nitric oxide synthase (eNOS) of cultured bovine aorta endothelial cells (BAEC) (bovine, UniProt P29473 2-1205).
T1 sequence (looked up): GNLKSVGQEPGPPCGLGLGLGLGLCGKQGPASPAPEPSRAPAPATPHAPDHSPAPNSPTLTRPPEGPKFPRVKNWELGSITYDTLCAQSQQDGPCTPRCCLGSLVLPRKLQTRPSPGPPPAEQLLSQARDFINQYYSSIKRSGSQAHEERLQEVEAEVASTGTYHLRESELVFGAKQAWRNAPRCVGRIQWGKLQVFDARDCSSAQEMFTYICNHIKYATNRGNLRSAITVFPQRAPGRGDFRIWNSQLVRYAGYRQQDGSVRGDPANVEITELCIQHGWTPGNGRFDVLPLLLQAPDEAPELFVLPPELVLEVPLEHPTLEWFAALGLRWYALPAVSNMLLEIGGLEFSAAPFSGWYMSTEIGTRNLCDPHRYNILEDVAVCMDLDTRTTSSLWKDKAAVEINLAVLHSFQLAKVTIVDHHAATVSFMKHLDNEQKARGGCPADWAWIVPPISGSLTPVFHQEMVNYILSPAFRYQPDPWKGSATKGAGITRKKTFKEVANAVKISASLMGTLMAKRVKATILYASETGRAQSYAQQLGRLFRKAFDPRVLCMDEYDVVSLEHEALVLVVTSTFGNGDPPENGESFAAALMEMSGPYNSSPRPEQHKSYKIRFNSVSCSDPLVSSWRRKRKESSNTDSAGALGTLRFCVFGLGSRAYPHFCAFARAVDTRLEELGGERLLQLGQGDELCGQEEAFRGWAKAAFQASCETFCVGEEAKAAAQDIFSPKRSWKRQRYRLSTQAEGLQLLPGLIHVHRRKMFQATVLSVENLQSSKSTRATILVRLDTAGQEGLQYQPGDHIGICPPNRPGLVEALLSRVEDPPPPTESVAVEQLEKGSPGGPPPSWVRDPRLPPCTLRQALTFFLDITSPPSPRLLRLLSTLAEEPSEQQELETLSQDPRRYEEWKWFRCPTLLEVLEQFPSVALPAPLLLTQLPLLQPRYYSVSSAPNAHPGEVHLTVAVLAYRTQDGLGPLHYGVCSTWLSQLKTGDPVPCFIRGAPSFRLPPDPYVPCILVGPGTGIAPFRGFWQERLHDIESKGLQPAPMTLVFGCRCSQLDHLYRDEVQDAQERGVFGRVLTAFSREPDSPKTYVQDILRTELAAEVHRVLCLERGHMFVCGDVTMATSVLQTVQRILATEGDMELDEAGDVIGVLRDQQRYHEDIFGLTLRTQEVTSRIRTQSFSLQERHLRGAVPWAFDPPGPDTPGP
Briefly: cell-based or functional assay.

Turning to RQIKIWFQNRRMKWKKDGIWKASFTTFTVTKYWFYR [AP-Cav (SEQ ID NO. 2/SEQ ID NO. 5)], the “EC50 of inhibition of VEGF-induced NO release by BAEC (dose response, non-linear regression)” value is 1.8 µM.

In the case of RRPPRDGIWKASFTTFTVTKYWFYR [Endo5-Cav (SEQ ID NO. 1/SEQ ID NO. 5)], the “EC50 of inhibition of VEGF-induced NO release by BAEC (dose response, non-linear regression)” value stood at 7.5 µM.
